Results: patent publication US20260284244 (published 2026)
Residue numbers refer to the chain shown, from its start. Each block holds one binder with its values, some of them ahead of it.

Biological target: T1, La/SSB N-terminal domain (La-NTD) (human, UniProt P05455)
T1 chain: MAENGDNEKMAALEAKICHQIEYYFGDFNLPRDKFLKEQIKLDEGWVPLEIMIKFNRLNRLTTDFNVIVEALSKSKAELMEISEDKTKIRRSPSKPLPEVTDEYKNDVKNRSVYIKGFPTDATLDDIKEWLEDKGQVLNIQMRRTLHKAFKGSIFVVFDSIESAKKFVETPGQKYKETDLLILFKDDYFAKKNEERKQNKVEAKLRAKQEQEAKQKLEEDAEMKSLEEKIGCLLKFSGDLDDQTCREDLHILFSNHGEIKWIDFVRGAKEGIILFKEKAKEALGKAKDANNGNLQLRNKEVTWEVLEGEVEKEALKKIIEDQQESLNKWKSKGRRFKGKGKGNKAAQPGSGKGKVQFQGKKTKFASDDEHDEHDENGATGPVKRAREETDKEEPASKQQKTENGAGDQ
Test: SPR

Kd: 18.2 nM
B1: chAPOMAB_VH0/VK0_K322A (antibody, V domains shown)
VH: EVQLQQPGAELVKPGASVKLSCKASGYAFTHYYIYWIKQRPGQGLEWIGGVNPSNGGTHFNEKFKSKATLTVDKSSSTAYMQLSSLTSEDSAVYYCTRSEYDYGLGFAYWGQGTLLTVSS
VL: EIVMSQSPSSLAVSAGEKVTMSCKSSQSLLNSRTPKNYLAWYQQKPGQSPKLLIYWASTRKSGVPDRFTGSGSGTDFTLTISSVQAEDLAVYYCKQSYNLLTFGAGTKLEL

Kd: 13.6 nM
B2: VH3/VK6_K322A (antibody, V domains shown)
VH: EVQLVQSGAEVKKPGASVKVSCKASGYAFTHYYIYWIRQAPGQGLEWMGGVNPSSGGTHYAEKFQGRVTLTVDTSSSTAYMELSSLRSEDTAVYYCTRSEYDYGLGFAYWGQGTLVTVSS
VL: DIVMTQSPLSLPVTPGEPASISCRSSQSLLSSRTPKNYLAWYQQKPGQSPQLLIYWASTRKSGVPDRFSGSGSGTDFTLKISRVEAEDVGVYYCKQSYNLLTFGQGTKLEIK

Kd: 8.72 nM
B3: VH6/VK8_K322A_RadMab (antibody, V domains shown)
VH: B2 VH with R38K, M48I, S55N, Y60F, A61N, Q65K, G66S, L70I, T74K, S76A
VL: EIVMTQSPDSLAVSLGERATINCKSSQSLLNSRTPKNYLAWYQQKPGQPPKLLIYWASTRESGVPDRFTGSGSGTDFTLTISSLQAEDVAVYYCKQSYNLLTFGQGTKLEIKR

Kd: 8.27 nM
B4: VH3/VK6_K322A_RadMab (antibody, V domains shown)
VH: B2 VH
VL: DIVMTQSPLSLPVTPGEPASISCRSSQSLLSSRTPKNYLAWYQQKPGQSPQLLIYWASTRKSGVPDRFSGSGSGTDFTLKISRVEAEDVGVYYCKQSYNLLTFGQGTKLEIKR

Kd: 14.5 nM
B5: VH6/VK8_K322A (antibody, V domains shown)
VH: B2 VH with R38K, M48I, S55N, Y60F, A61N, Q65K, G66S, L70I, T74K, S76A
VL: EIVMTQSPDSLAVSLGERATINCKSSQSLLNSRTPKNYLAWYQQKPGQPPKLLIYWASTRESGVPDRFTGSGSGTDFTLTISSLQAEDVAVYYCKQSYNLLTFGQGTKLEIK
